Data reported in the supplement of paper PMC10567573.

B1: FAM9B (parent)
chain: EDLTAKRKRMKMDKTCSKTKNKSK
B2: GMCL1 (parent)
chain: FCYCAGSHKRKRSSGSFCYCHPDS

Variants of: B1
Assay: protein stability index of a GFP-peptide fusion (GPS, HEK-293T) (PSI 1-6); higher = more stable
Conditions: c terminus: a fixed tail appended
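Note: lentivirally expressed fusions sorted by FACS into six bins by GFP to DsRed ratio, PSI derived from sequencing read proportions per bin multiplied by bin number.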

Variant	protein stability index
EDLTAKRKRMKMDKTCSKTKNFSK [K22F]	4.63
EDLTAKRKRMKMDKTCSKTKNGSK [K22G]	4.78
EDLTAKRKRMKMDKTCSKTKNHSK [K22H]	5
EDLTAKRKRMKMDKTCSKTKNISK [K22I]	3.59
EDLTAKRKRMKMDKTCSKTKNLSK [K22L]	4.39
EDLTAKRKRMKMDKTCSKTKNMSK [K22M]	4.47
EDLTAKRKRMKMDKTCSKTKNNSK [K22N]	4.83
EDLTAKRKRMKMDKTCSKTKNPSK [K22P]	5.58
EDLTAKRKRMKMDKTCSKTKNQSK [K22Q]	4.74
EDLTAKRKRMKMDKTCSKTKNRSK [K22R]	5.31
EDLTAKRKRMKMDKTCSKTKNTSK [K22T]	5.11
EDLTAKRKRMKMDKTCSKTKNVSK [K22V]	4.39
EDLTAKRKRMKMDKTCSKTKNWSK [K22W]	4.19
EDLTAKRKRMKMDKTCSKTKNYSK [K22Y]	5.07
EDLTAKRKRMKMDKTCSKTKNKAK [S23A]	5.7
EDLTAKRKRMKMDKTCSKTKNKCK [S23C]	5.32
EDLTAKRKRMKMDKTCSKTKNKDK [S23D]	5.36
EDLTAKRKRMKMDKTCSKTKNKEK [S23E]	5.52
EDLTAKRKRMKMDKTCSKTKNKFK [S23F]	4.6
EDLTAKRKRMKMDKTCSKTKNKGK [S23G]	5.07
EDLTAKRKRMKMDKTCSKTKNKHK [S23H]	4.53
EDLTAKRKRMKMDKTCSKTKNKIK [S23I]	4.78
EDLTAKRKRMKMDKTCSKTKNKKK [S23K]	5.06
EDLTAKRKRMKMDKTCSKTKNKLK [S23L]	4.76
EDLTAKRKRMKMDKTCSKTKNKMK [S23M]	3.93
EDLTAKRKRMKMDKTCSKTKNKNK [S23N]	5.12

Variant	protein stability index
EDLTAKRKRMKMDKTCSKTKNKPK [S23P]	5.54
EDLTAKRKRMKMDKTCSKTKNKQK [S23Q]	5.1
EDLTAKRKRMKMDKTCSKTKNKRK [S23R]	5.24
EDLTAKRKRMKMDKTCSKTKNKTK [S23T]	5.31
EDLTAKRKRMKMDKTCSKTKNKVK [S23V]	5.27
EDLTAKRKRMKMDKTCSKTKNKWK [S23W]	4.47
EDLTAKRKRMKMDKTCSKTKNKYK [S23Y]	5.07
EDLTAKRKRMKMDKTCSKTKNKSA [K24A]	5.14
EDLTAKRKRMKMDKTCSKTKNKSC [K24C]	5.2
EDLTAKRKRMKMDKTCSKTKNKSD [K24D]	4.97
EDLTAKRKRMKMDKTCSKTKNKSE [K24E]	5.11
EDLTAKRKRMKMDKTCSKTKNKSF [K24F]	4.83
EDLTAKRKRMKMDKTCSKTKNKSG [K24G]	4.19
EDLTAKRKRMKMDKTCSKTKNKSH [K24H]	4.71
EDLTAKRKRMKMDKTCSKTKNKSI [K24I]	4.68
EDLTAKRKRMKMDKTCSKTKNKSL [K24L]	4.01
EDLTAKRKRMKMDKTCSKTKNKSM [K24M]	4.96
EDLTAKRKRMKMDKTCSKTKNKSN [K24N]	5
EDLTAKRKRMKMDKTCSKTKNKSP [K24P]	4.93
EDLTAKRKRMKMDKTCSKTKNKSQ [K24Q]	4.59
EDLTAKRKRMKMDKTCSKTKNKSR [K24R]	5.06
EDLTAKRKRMKMDKTCSKTKNKSS [K24S]	4.43
EDLTAKRKRMKMDKTCSKTKNKST [K24T]	5.15
EDLTAKRKRMKMDKTCSKTKNKSV [K24V]	4.62
EDLTAKRKRMKMDKTCSKTKNKSW [K24W]	3.98

Variants of: B2
Assay: as above
Conditions: c terminus: a fixed tail appended

Variant	protein stability index
FCYCAGSHKRKRSSGSFCPCHPDS [Y19P]	3.37
FCYCAGSHKRKSSSGSFCYCHPDS [R12S]	1.74
FCYCAGSHKRKRVSGSFCYCHPDS [S13V]	1.86
FCYCAGSHKRKRSSGSFCYCHPFS [D23F]	2.06
FCYCAGSHQRKRSSGSFCYCHPDS [K9Q]	2.01
FCYCAGSHKRKRSQGSFCYCHPDS [S14Q]	1.89
FCYCAGSHKRKRSSGSFCYCHPTS [D23T]	3.04
FCYCAGSHKRKRSSGSCCYCHPDS [F17C]	3.2
NCYCAGSHKRKRSSGSFCYCHPDS [F1N]	3.81
FCYMAGSHKRKRSSGSFCYCHPDS [C4M]	2.52
FCYCAGSHKRKRSSGSFEYCHPDS [C18E]	2.74
FCYCAGSQKRKRSSGSFCYCHPDS [H8Q]	1.43
FCYCAGSHKRKRSSGNFCYCHPDS [S16N]	1.36
FCSCAGSHKRKRSSGSFCYCHPDS [Y3S]	2.25
FCYQAGSHKRKRSSGSFCYCHPDS [C4Q]	1.01
FCYCAGSHKRKRSSNSFCYCHPDS [G15N]	2.81
FCYCAGSHKRKQSSGSFCYCHPDS [R12Q]	2.33
FCYCAGSHKRARSSGSFCYCHPDS [K11A]	1.59
FCYCYGSHKRKRSSGSFCYCHPDS [A5Y]	1.89
FCYCAGEHKRKRSSGSFCYCHPDS [S7E]	2.2
FCECAGSHKRKRSSGSFCYCHPDS [Y3E]	2.5
FCYFAGSHKRKRSSGSFCYCHPDS [C4F]	1.65

Variant	protein stability index
FCYCAGSHPRKRSSGSFCYCHPDS [K9P]	1.52
FCYCAGSNKRKRSSGSFCYCHPDS [H8N]	2.19
FCYCAGSHKRKRSSGSFCYCHPWS [D23W]	2.16
FCYCQGSHKRKRSSGSFCYCHPDS [A5Q]	1.94
FCYCAGSHKRKRSSGSFCYMHPDS [C20M]	2.3
FCMCAGSHKRKRSSGSFCYCHPDS [Y3M]	2.02
FTYCAGSHKRKRSSGSFCYCHPDS [C2T]	2.22
FFYCAGSHKRKRSSGSFCYCHPDS [C2F]	2.25
FCYCAGSHKRKMSSGSFCYCHPDS [R12M]	1.54
FCYCAGSHKRKRSSGYFCYCHPDS [S16Y]	2.14
FCYCAGSGKRKRSSGSFCYCHPDS [H8G]	2.88
FCFCAGSHKRKRSSGSFCYCHPDS [Y3F]	2.01
FCYCAGSHKRKHSSGSFCYCHPDS [R12H]	1.96
FCYCAGSHKRKRSSGSFCACHPDS [Y19A]	3.72
FCYCAGSHKRKRSSGRFCYCHPDS [S16R]	1.59
FCYCAGSHKRKRLSGSFCYCHPDS [S13L]	2.5
FCHCAGSHKRKRSSGSFCYCHPDS [Y3H]	1.81
FCYCAGSHKRKRSSGSFCYVHPDS [C20V]	1.91
FCYPAGSHKRKRSSGSFCYCHPDS [C4P]	1.53
FMYCAGSHKRKRSSGSFCYCHPDS [C2M]	1.51
FCYCAGSHKRKRSKGSFCYCHPDS [S14K]	1.61
